Laboratory results reported in US20140086935A1 (Bayer, published 2014).
Where a chain is given by its changes, count along the chain named.

B1: MS-BW-40 (Fab, V domains shown)
VH: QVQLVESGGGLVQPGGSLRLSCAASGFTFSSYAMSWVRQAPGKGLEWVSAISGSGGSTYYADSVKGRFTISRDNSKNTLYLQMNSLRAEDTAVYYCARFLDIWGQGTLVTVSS
VL: DIALTQPASVSGSPGQSITISCTGTSSDVGGYNYVSWYQQHPGKAPKLMIYDVSNRPSGVSNRFSGSKSGNTASLTISGLQAEDEADYYCQSYDYQQFTVFGGGTKLTVLG
notes: Fab: heavy chain of MS-BW-3 with light chain of MS-BW-1; not tied by name
B2: MS-BW-46 (Fab, V domains shown)
VH: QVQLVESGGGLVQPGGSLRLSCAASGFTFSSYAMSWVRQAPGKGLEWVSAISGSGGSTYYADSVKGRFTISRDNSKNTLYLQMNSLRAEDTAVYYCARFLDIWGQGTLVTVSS
VL: B1 VL with Y95F, Q96R, Q97R, T99S
notes: Fab: heavy chain of MS-BW-3 with light chain of MS-BW-28; not tied by name
B3: MS-BW-45 (Fab, V domains shown)
VH: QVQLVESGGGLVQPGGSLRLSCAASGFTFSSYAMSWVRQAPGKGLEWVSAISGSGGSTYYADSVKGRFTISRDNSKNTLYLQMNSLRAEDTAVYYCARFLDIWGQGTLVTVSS
VL: B1 VL with Y95F, Q96Y, Q97K, T99N
notes: Fab: heavy chain of MS-BW-3 with light chain of MS-BW-27; not tied by name
B4: MS-BW-41 (Fab, V domains shown)
VH: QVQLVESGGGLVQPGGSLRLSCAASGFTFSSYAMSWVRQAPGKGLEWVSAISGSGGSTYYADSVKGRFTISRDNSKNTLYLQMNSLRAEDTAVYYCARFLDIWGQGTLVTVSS
VL: B1 VL with Y95F, Q96K, Q97T, F98Y, T99L
notes: Fab: heavy chain of MS-BW-3 with light chain of MS-BW-2; not tied by name
B5: MS-BW-49 (Fab, V domains shown)
VH: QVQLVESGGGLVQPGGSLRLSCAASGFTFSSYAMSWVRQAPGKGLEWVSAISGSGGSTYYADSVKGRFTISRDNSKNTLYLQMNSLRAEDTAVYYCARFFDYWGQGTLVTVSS
VL: B1 VL with Y95F, Q96K, Q97T, F98Y, T99L
notes: Fab: heavy chain of MS-BW-28 with light chain of MS-BW-2; not tied by name
B6: MS-BW-47 (Fab, V domains shown)
VH: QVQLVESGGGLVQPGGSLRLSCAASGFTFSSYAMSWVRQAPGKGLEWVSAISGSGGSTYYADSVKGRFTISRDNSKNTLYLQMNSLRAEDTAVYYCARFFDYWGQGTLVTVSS
VL: B1 VL
notes: Fab: heavy chain of MS-BW-28 with light chain of MS-BW-1; not tied by name
B7: MS-BW-43 (Fab, V domains shown)
VH: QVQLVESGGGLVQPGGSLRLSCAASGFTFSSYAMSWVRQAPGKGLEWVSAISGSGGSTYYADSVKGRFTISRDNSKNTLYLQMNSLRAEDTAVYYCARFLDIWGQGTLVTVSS
VL: B1 VL with Y95F, Q96I, Q97N, F98V, T99I
notes: Fab: heavy chain of MS-BW-3 with light chain of MS-BW-25; not tied by name
B8: MS-BW-18 (Fab, V domains shown)
VH: QVQLVQSGAEVKKPGESLKISCKGSGYSFTSYWIGWVRQMPGKGLEWMGIIYPGDSDTRYSPSFQGQVTISADKSISTAYLQWSSLKASDTAMYYCARLVGGGYDLMFDSWGQGTLVTVSS
VL: DIALTQPASVSGSPGQSITISCTGTSSDVGGYNYVSWYQQHPGKAPKLMIYDVSNRPSGVSNRFSGSKSGNTASLTISGLQAEDEADYYCQSYDDMQFVFGGGTKLTVLG
notes: Fab, FLAG + Strep-tag II; not tied by name
B9: MS-BW-31 (Fab, V domains shown)
VH: QVQLVQSGAEVKKPGESLKISCKGSGYSFTSYWIGWVRQMPGKGLEWMGIIYPGDSDTRYSPSFQGQVTISADKSISTAYLQWSSLKASDTAMYYCARLYADADIYFDYWGQGTLVTVSS
VL: B8 VL with D95L, M96S, Q97P, F98R
notes: as for B8
B10: MS-BW-30 (Fab, V domains shown)
VH: B8 VH with L99Y, V100A, G102H, G103Q, D105E, L106F, M107F, S110F
VL: DIELTQPPSVSVAPGQTARISCSGDALGDKYASWYQQKPGQAPVLVIYDDSDRPSGIPERFSGSNSGNTATLTISGTQAEDEADYYCQSRDPVGFPVFGGGTKLTVLG
notes: as for B8
B11: MS-BW-22 (Fab, V domains shown)
VH: B8 VH with L99F, V100R, G101A, G102Y, Y104D, L106F, M107Y, S110V
VL: DIALTQPASVSGSPGQSITISCTGTSSDVGGYNYVSWYQQHPGKAPKLMIYDVSNRPSGVSNRFSGSKSGNTASLTISGLQAEDEADYYCQSWDNLKMPVVFGGGTKLTVLG
notes: as for B8
B12: MS-BW-37 (Fab, V domains shown)
VH: B9 VH with Y100F, D102G, A103L, D104E, I105L
VL: B8 VL with D95L, M96R, Q97N, F98R
notes: as for B8
B13: MS-BW-29 (Fab, V domains shown)
VH: B9 VH with L99H, Y100D, A101F, A103G, D104S, Y106F, F107M, Y109F
VL: B8 VL with D95V, M96T, Q97P, F98R
notes: as for B8
B14: MS-BW-56 (Fab, V domains shown)
VH: QVQLVQSGAEVKKPGSSVKVSCKASGGTFSSYAISWVRQAPGQGLEWMGGIIPIFGTANYAQKFQGRVTITADESTSTAYMELSSLRSEDTAVYYCARQEWYMDYWGQGTLVTVSS
VL: DIELTQPPSVSVAPGQTARISCSGDALGDKYASWYQQKPGQAPVLVIYDDSDRPSGIPERFSGSNSGNTATLTISGTQAEDEADYYCQSYDRSMWVFGGGTKLTVLG
notes: as for B8
B15: MS-BW-19 (Fab, V domains shown)
VH: QVQLVQSGAEVKKPGESLKISCKGSGYSFTSYWIGWVRQMPGKGLEWMGIIYPGDSDTRYSPSFQGQVTISADKSISTAYLQWSSLKASDTAMYYCARYVTYGYDDYHFDYWGQGTLVTVSS
VL: B1 VL with Y93W, Y95I, Q96N, Q97H, F98A, T99I
notes: as for B8
B16: MS-BW-20 (Fab, V domains shown)
VH: QVQLVQSGAEVKKPGSSVKVSCKASGGTFSSYAISWVRQAPGQGLEWMGGIIPIFGTANYAQKFQGRVTITADESTSTAYMELSSLRSEDTAVYYCARSGYLDYWGQGTLVTVSS
VL: B1 VL with Q96Y, Q97D, F98Y, T99G
notes: as for B8
B17: MS-BW-57 (Fab, V domains shown)
VH: B9 VH with A101P, D102E, A103D, D104L
VL: B1 VL with Y93W, Y95V, Q97T, F98D, T99K
notes: as for B8
B18: MS-BW-61 (Fab, V domains shown)
VH: B9 VH with L99I, Y100I, A101G, A103Y, D104V, Y106F, Y109V
VL: B1 VL with Y93F, Y95M, Q96I, Q97H, F98P, T99Y
notes: as for B8
B19: MS-BW-60 (Fab, V domains shown)
VH: B15 VH with Y99F, T101S, G103N, Y104G, D105S, D106V, Y107P, H108Y
VL: B1 VL with Y93M, Y95F, Q96R, Q97L, F98M, T99H
notes: as for B8
B20: MS-BW-59 (Fab, V domains shown)
VH: B8 VH with V100R, G101V, G102H, G103D, D105A, L106M, M107Y, S110L
VL: B1 VL with Y95I, Q96M, Q97P, F98E, T99R
notes: as for B8
B21: MS-BW-36 (Fab, V domains shown)
VH: QVQLVQSGAEVKKPGESLKISCKGSGYSFTSYWIGWVRQMPGKGLEWMGIIYPGDSDTRYSPSFQGQVTISADKSISTAYLQWSSLKASDTAMYYCARYRYPHMFDFWGQGTLVTVSS
VL: B10 VL with R90Y, P92L, V93R, G94Y, F95S, P96H
notes: as for B8
B22: MS-BW-62 (Fab, V domains shown)
VH: B9 VH with Y100F, A101T, D102Y, A103P, D104F, I105L, Y109V
VL: DIALTQPASVSGSPGQSITISCTGTSSDVGGYNYVSWYQQHPGKAPKLMIYDVSNRPSGVSNRFSGSKSGNTASLTISGLQAEDEADYYCQSDFPVMVFGGGTKLTVLG
notes: as for B8
B23: MS-BW-24 (Fab, V domains shown)
VH: B9 VH with L99Y, A101V, D102T, A103D, D104T, I105A
VL: B22 VL with F94L, P95Y, V96F, M97P
notes: as for B8
B24: MS-BW-63 (Fab, V domains shown)
VH: B9 VH with L99I, Y100L, A101T, D102G, A103H, D104V, I105L, Y106L
VL: B22 VL with F94N, V96Y, M97L
notes: as for B8
B25: MS-BW-23 (Fab, V domains shown)
VH: QVQLVQSGAEVKKPGASVKVSCKASGYTFTSYYMHWVRQAPGQGLEWMGWINPNSGGTNYAQKFQGRVTMTRDTSISTAYMELSSLRSEDTAVYYCARIMWSDYGQLVKGGDIWGQGTLVTVSS
VL: B11 VL with W93Y, N95V, L96F, K97P, M98I, P99N, V100R
notes: as for B8
B26: MS-BW-55 (Fab, V domains shown)
VH: QVQLVQSGAEVKKPGSSVKVSCKASGGTFSSYAISWVRQAPGQGLEWMGWINPNSGGTNYAQKFQGRVTMTRDTSISTAYMELSSLRSEDTAVYYCARITYIGYDFWGQGTLVTVSS
VL: B11 VL with W93R, N95L, L96Y, K97Y, M98V, P99Y, V100Y
notes: as for B8
B27: MS-BW-32 (Fab, V domains shown)
VH: QVQLVQSGAEVKKPGSSVKVSCKASGGTFSSYAISWVRQAPGQGLEWMGGIIPIFGTANYAQKFQGRVTITADESTSTAYMELSSLRSEDTAVYYCARTKYVGSEDVWGQGTLVTVSS
VL: B11 VL with W93Y, N95F, L96S, K97H, M98Y, P99F, V100F
notes: as for B8

The binders below were run against T1, human TIMP-1 (human, UniProt P01033 24-207) (assay: cell-based or functional assay).
B1 was tested, and the “IC50 in human protease assay” value was greater than 100 nM.
For B2, the “IC50 in human protease assay” value was 4 nM.
B3 was tested, and the “IC50 in human protease assay” value was 9 nM.
With B4 the “IC50 in human protease assay” value was 29 nM.
With B5 the “IC50 in human protease assay” value was greater than 100 nM.
With B6 the “IC50 in human protease assay” value was greater than 100 nM.
B7 was tested, and the “IC50 in human protease assay” value was greater than 100 nM.

What follows are binders tested against T2, rat TIMP-1 (rat, UniProt P30120 24-217) (assay: cell-based or functional assay).
T2 sequence (P30120 24-217 limits assumed): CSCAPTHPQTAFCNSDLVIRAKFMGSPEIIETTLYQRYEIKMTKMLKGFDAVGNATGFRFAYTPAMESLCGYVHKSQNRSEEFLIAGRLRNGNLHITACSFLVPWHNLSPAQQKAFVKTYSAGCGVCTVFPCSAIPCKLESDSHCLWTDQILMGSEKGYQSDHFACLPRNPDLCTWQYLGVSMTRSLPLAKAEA
In the case of B8, the “IC50 in rat protease assay” value is reported as greater than 300 nM.
In the case of B9, the “IC50 in rat protease assay” value is reported as greater than 100 nM.
With B10 the “IC50 in rat protease assay” value was greater than 100 nM.
For B11, the “IC50 in rat protease assay” value was 65 nM.
For B12, the “IC50 in rat protease assay” value was greater than 100 nM.
In the case of B13, the “IC50 in rat protease assay” value is reported as greater than 100 nM.
In the case of B14, the “IC50 in rat protease assay” value is reported as greater than 100 nM.
B15 was tested, and the “IC50 in rat protease assay” value was greater than 300 nM.
For B16, the “IC50 in rat protease assay” value was greater than 300 nM.
In the case of B17, the “IC50 in rat protease assay” value is reported as roughly 60 nM.
With B18 the “IC50 in rat protease assay” value was greater than 100 nM.
In the case of B19, the “IC50 in rat protease assay” value is reported as greater than 100 nM.
With B20 the “IC50 in rat protease assay” value was 30 nM.
In the case of B21, the “IC50 in rat protease assay” value is reported as roughly 75 nM.
In the case of B22, the “IC50 in rat protease assay” value is reported as 19 nM.
In the case of B23, the “IC50 in rat protease assay” value is reported as 20 nM.
B24 was tested, and the “IC50 in rat protease assay” value was 20 nM.
B25 was tested, and the “IC50 in rat protease assay” value was greater than 300 nM.
In the case of B26, the “IC50 in rat protease assay” value is reported as roughly 100 nM.
B27 was tested, and the “IC50 in rat protease assay” value was greater than 100 nM.

Each binder was assayed against T1, human TIMP-1 (assay: SPR (BIAcore), TIMP-1 coupled to chip, monovalent Fab).
Procedure: (§1) For affinity determination, monomeric fractions of affinity and SEC purified Fab fragments or purified IgG1 molecules were used. All experiments were conducted in HBS buffer at a flow rate of 20 μl/min at 25° C. on a BIAcore™ instrument. Antigens in 100 mM sodium acetate pH 5.0 were coupled to a CM 5 sensor chip using standard EDC-NHS coupling chemistry. […] All sensograms were fitted globally using BIA evaluation software. For monovalent Fab fragments a monovalent fit (Langmuir binding) and for IgGs a bivalent fit was applied.
Binder B1 has a Kd of roughly 49 nM.
B2 gave a Kd of 6 nM.
With B3 the Kd was 8 nM.
B4 was tested, and the Kd was roughly 6 nM.
In the case of B5, the Kd is reported as roughly 21 nM.
B6 gave a Kd of roughly 152 nM.
For B7, the Kd was roughly 65 nM.

These binders were tested against T2, rat TIMP-1 in the same assay as above.
Procedure: as §1
In the case of B8, the Kd is reported as roughly 153 nM.
B9 was tested, and the Kd was roughly 13 nM.
B10 was tested, and the Kd was roughly 36 nM.
In the case of B11, the Kd is reported as 35 nM.
For B12, the Kd was 10 nM.
B13 showed a Kd of roughly 214 nM.
With B14 the Kd was roughly 170 nM.
B15 was tested, and the Kd was roughly 187 nM.
Binder B16 has a Kd of roughly 70 nM.
In the case of B17, the Kd is reported as roughly 39 nM.
In the case of B18, the Kd is reported as roughly 51 nM.
With B19 the Kd was roughly 30 nM.
In the case of B20, the Kd is reported as roughly 15 nM.
Binder B21 has a Kd of roughly 42 nM.
For B22, the Kd was roughly 36 nM.
Work on B23 yielded a Kd of 23 nM.
In the case of B24, the Kd is reported as roughly 14 nM.
Binder B25 has a Kd of roughly 207 nM.
Work on B26 yielded a Kd of roughly 23 nM.
For B27, the Kd was roughly 92 nM.
